Reference: patent US20260167699A1 (Chugai, published 2026)

T1: FcγRIIa(H) extracellular domain, C-terminal His tag (human, UniProt P12318 34-217)
T1 construct: extracellular domain; also called 2aH
T1 sequence: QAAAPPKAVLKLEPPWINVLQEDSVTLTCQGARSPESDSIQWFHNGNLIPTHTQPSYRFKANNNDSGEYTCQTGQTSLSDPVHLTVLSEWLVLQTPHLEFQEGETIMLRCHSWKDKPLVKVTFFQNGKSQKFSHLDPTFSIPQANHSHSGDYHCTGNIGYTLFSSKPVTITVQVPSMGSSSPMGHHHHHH

T2: FcγRIIb extracellular domain, C-terminal His tag (human, UniProt P31994 43-217)
T2 construct: extracellular domain; also called 2b
T2 sequence: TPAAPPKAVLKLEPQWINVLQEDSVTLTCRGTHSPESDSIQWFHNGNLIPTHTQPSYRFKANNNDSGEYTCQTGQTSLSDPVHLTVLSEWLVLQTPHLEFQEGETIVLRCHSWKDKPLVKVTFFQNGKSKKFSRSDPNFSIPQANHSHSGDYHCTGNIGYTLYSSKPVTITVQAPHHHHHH

T3: FcγRIIa(R) extracellular domain, C-terminal His tag (human, UniProt P12318 34-217)
T3 construct: extracellular domain; also called 2aR
T3 sequence: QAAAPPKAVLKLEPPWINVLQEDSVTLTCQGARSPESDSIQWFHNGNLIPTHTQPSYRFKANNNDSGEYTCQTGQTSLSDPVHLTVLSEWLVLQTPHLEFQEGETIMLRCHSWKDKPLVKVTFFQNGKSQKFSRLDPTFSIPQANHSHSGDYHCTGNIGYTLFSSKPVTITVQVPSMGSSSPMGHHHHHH


Key:
Assay in all cases: SPR; He Ab vs HeCon Ab (GpH7-A5/GpH7-B3/GpL16-k0)=100;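 note: surface plasmon resonance at 25 °C with the test antibody captured on a sensor chip via antigenic peptide, protein L or protein A/G and FcγR flowed over as analyte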
[1] = target: T1, FcγRIIa(H) extracellular domain, …
[2] = target: T4, FcγRIa extracellular domain, C-terminal His tag (human, UniProt P12314 16-292)
T4 construct: extracellular domain; also called 1a
T4 sequence (P12314 other isoform, or with tags, fused parts or gaps): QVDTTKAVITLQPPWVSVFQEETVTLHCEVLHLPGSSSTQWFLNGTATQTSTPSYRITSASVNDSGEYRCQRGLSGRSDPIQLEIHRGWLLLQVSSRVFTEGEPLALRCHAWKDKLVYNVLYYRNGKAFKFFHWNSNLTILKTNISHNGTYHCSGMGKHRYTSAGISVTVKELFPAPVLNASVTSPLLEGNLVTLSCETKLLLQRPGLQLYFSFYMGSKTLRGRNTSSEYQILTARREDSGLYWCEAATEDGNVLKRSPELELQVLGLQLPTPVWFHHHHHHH

[3] = target: T2, FcγRIIb extracellular domain, …
[4] = target: T5, FcγRIIIa extracellular domain, C-terminal His tag (human, UniProt P08637 17-208)
T5 construct: extracellular domain; also called 3a
T5 sequence (P08637 other isoform, or with tags, fused parts or gaps): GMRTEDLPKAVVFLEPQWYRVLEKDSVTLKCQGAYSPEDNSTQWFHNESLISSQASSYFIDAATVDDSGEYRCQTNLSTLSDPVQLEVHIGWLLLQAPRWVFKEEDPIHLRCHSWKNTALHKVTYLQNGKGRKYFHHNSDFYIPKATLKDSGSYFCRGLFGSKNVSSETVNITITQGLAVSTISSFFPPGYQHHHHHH

[5] = target: T3, FcγRIIa(R) extracellular domain, …

Row | He/Con 2aH [1] | He/Con 1a [2] | He/Con 2b [3] | He/Con 3a [4] | He/Con 2aR [5] | Binder
1 | 101% | 101% | 92.7% | 96% | 96.2% | GpH7-A5/GpH7-B3 variant Y300_18N/GpL16-k0 (antibody, human IgG1, kappa, heterodimerized IgG1, one H chain mutated; also called He Ab; copies: 1 + 1 + 2) heavy 1: not shown heavy 2: not shown light: DIVMTQSPLSLPVTPGEPASISCQASESLVHSNRNTYLHWYLQKPGQSPQLLIYKVSNRFSGVPDRFSGSGSGTDFTLKISRVEAEDVGVYYCSQNTHVPPTFGQGTKVEIERTVAAPSVFIFPPSDEQLKSGTASVVCLLNNFYPREAKVQWKVDNALQSGNSQESVTEQDSKDSTYSLSSTLTLSKADYEKHKVYACEVTHQGLSSPVTKSFNRGEC
2 | 104% | 105% | 72.7% | 92.8% | 78.6% | GpH7-A5/GpH7-B3 variant Y300_14T/GpL16-k0 (antibody, human IgG1, kappa, heterodimerized IgG1, one H chain mutated; also called He Ab; copies: 1 + 1 + 2) heavy 1: not shown heavy 2: not shown light: DIVMTQSPLSLPVTPGEPASISCQASESLVHSNRNTYLHWYLQKPGQSPQLLIYKVSNRFSGVPDRFSGSGSGTDFTLKISRVEAEDVGVYYCSQNTHVPPTFGQGTKVEIERTVAAPSVFIFPPSDEQLKSGTASVVCLLNNFYPREAKVQWKVDNALQSGNSQESVTEQDSKDSTYSLSSTLTLSKADYEKHKVYACEVTHQGLSSPVTKSFNRGEC
3 | 105% | 105% | 114% | 102% | 103% | GpH7-A5/GpH7-B3 variant Y300_16H/GpL16-k0 (antibody, human IgG1, kappa, heterodimerized IgG1, one H chain mutated; also called He Ab; copies: 1 + 1 + 2) heavy 1: not shown heavy 2: not shown light: DIVMTQSPLSLPVTPGEPASISCQASESLVHSNRNTYLHWYLQKPGQSPQLLIYKVSNRFSGVPDRFSGSGSGTDFTLKISRVEAEDVGVYYCSQNTHVPPTFGQGTKVEIERTVAAPSVFIFPPSDEQLKSGTASVVCLLNNFYPREAKVQWKVDNALQSGNSQESVTEQDSKDSTYSLSSTLTLSKADYEKHKVYACEVTHQGLSSPVTKSFNRGEC
4 | 101% | 106% | 122% | 104% | 105% | GpH7-A5/GpH7-B3 variant Y300_09D/GpL16-k0 (antibody, human IgG1, kappa, heterodimerized IgG1, one H chain mutated; also called He Ab; copies: 1 + 1 + 2) heavy 1: not shown heavy 2: not shown light: DIVMTQSPLSLPVTPGEPASISCQASESLVHSNRNTYLHWYLQKPGQSPQLLIYKVSNRFSGVPDRFSGSGSGTDFTLKISRVEAEDVGVYYCSQNTHVPPTFGQGTKVEIERTVAAPSVFIFPPSDEQLKSGTASVVCLLNNFYPREAKVQWKVDNALQSGNSQESVTEQDSKDSTYSLSSTLTLSKADYEKHKVYACEVTHQGLSSPVTKSFNRGEC
5 | 107% | 106% | 142% | 105% | 119% | GpH7-A5/GpH7-B3 variant Y300_19Q/GpL16-k0 (antibody, human IgG1, kappa, heterodimerized IgG1, one H chain mutated; also called He Ab; copies: 1 + 1 + 2) heavy 1: not shown heavy 2: not shown light: DIVMTQSPLSLPVTPGEPASISCQASESLVHSNRNTYLHWYLQKPGQSPQLLIYKVSNRFSGVPDRFSGSGSGTDFTLKISRVEAEDVGVYYCSQNTHVPPTFGQGTKVEIERTVAAPSVFIFPPSDEQLKSGTASVVCLLNNFYPREAKVQWKVDNALQSGNSQESVTEQDSKDSTYSLSSTLTLSKADYEKHKVYACEVTHQGLSSPVTKSFNRGEC
6 | 74.2% | 101% | 67.4% | 63.7% | 73.1% | GpH7-A5/GpH7-B3 variant Y300_11K/GpL16-k0 (antibody, human IgG1, kappa, heterodimerized IgG1, one H chain mutated; also called He Ab; copies: 1 + 1 + 2) heavy 1: not shown heavy 2: not shown light: DIVMTQSPLSLPVTPGEPASISCQASESLVHSNRNTYLHWYLQKPGQSPQLLIYKVSNRFSGVPDRFSGSGSGTDFTLKISRVEAEDVGVYYCSQNTHVPPTFGQGTKVEIERTVAAPSVFIFPPSDEQLKSGTASVVCLLNNFYPREAKVQWKVDNALQSGNSQESVTEQDSKDSTYSLSSTLTLSKADYEKHKVYACEVTHQGLSSPVTKSFNRGEC
7 | 103% | 106% | 110% | 101% | 104% | GpH7-A5/GpH7-B3 variant Y300_20W/GpL16-k0 (antibody, human IgG1, kappa, heterodimerized IgG1, one H chain mutated; also called He Ab; copies: 1 + 1 + 2) heavy 1: not shown heavy 2: not shown light: DIVMTQSPLSLPVTPGEPASISCQASESLVHSNRNTYLHWYLQKPGQSPQLLIYKVSNRFSGVPDRFSGSGSGTDFTLKISRVEAEDVGVYYCSQNTHVPPTFGQGTKVEIERTVAAPSVFIFPPSDEQLKSGTASVVCLLNNFYPREAKVQWKVDNALQSGNSQESVTEQDSKDSTYSLSSTLTLSKADYEKHKVYACEVTHQGLSSPVTKSFNRGEC
